Results on 10 sequences are retold here after a protein production outcome set (Wang et al. 2014).

A short description of this series: label from the status in PepcDB records.
Regarding “MAAARDQLQMAADVARLGIWRWNLADDSLQWNERMCEMYGQPLALRDGGLVYEHWRSRLHPEDLERTEASLRAAVEGRGNYDVIFRVVLPDGGIRFIQAGAQVERDADGNPLQVTGINIDITSDQQLQARLREAKEQADAASAAKSSFLANMSHEIRTPMNAVLGML”, the protein production result is “failed”.

On to “GSALIDEIRSLGESLQGYNVRHINSTIIGGGVAEILSSLVPLMEDVGLTVNWEVLAGTTEFFHTTKLFHNGMHGQPVNITGEMLENYLAIAQKNQNLLDGDADLVVIHDQQPLGLTAFRGRTRGRWLWYCHVDPRYAVPEVWYFLAPMVATCDAAVFHLP”, for which the protein production entry is listed as “failed”.

With “MSKVEQNAQHNIQQTSPNAAVQSGLQEWHRIIAEADWERLPDLLAEDVVFSNPSTFDPYHGKGPLMVILPAVFSVLENFQYARHFSSKSGYVLEFNANMGDELLTGVDLIEFNDAGKITDLVVMMRPASVVIDLSVEVGKRIAAAQS”, the protein production result was “not failed”.

In the case of “MNTSFIKTLMTTNAGFAALALRIPTAIIFIAHGAQKLFGSFGGYGLEGTGQWMASIGLEPGYQLALLAGSAEFFGGIALLIGLLVRPAALMLSVTMVVAIFSVHFANGLFMTNNGYEFALALLAVSFSLMFSGAGKLSLDNLLAEKLA”, the protein production result is given as “failed”.

As to “MLQTIKRADSAVSIIGAGIAGAWQALLFAQAGHAVTLHERGDAAMTDSTSHWAGGMLAPWCEAEVAEPIISRLGQRSLDIWRRELPDTPFNGSLVVAHPRERNDFERFARMTEEHRRLDAASLAELEPSLEGRFRDALFFPTEGHVEPRRVLPKLHERIRAAGGTIKFSSDVSAADLDGIVIDCRGLSARDEQPDLRGVKGEMILIETSEVQLARPVRLIHPRWPLYVIPREDNLFMLGATSIEAEDTGVSVRSALELLGAAYTVHPAFGEARIVEFGSGLRPAFPDNLPRIGIRGGRITVNGLYRHGFLIAPALAELTLQYVQRGQIDNEVMQCG”, the protein production entry was “failed”.

Take “MMGNDSYSSNRGSSRDVLSFLQNFLGGFYAKYGIEVKLVGGLSLSKFYYAFDAERNQFLARHFLPVLSYIKKDFNARAALGIVNVDIYEPGFNFIFGLAHPGLKVAVVSLYRLYPEFYGNPPDRKLLKERALKEVMHELGHVFGLGHCPNPKCVMHFSNSIIDTDIKSWMYCESCLRKLEKNLARSHVLEHHHHHH”: the protein production entry is on record as “failed”.

Consider “MQTQIKVRGYHLDVYQHVNNARYLEFLEEARWDGLENSDSFQWMTAHNIAFVVVNININYRRPAVLSDLLTITSQLQQLNGKSGILSQVITLEPEGQVVADALITFVCIDLKTQKALALEGELREKLEQMVK”, for which the protein production entry is given as “not failed”.

On to “MGFTDSIREHVREHRTGMVHDLMFAVVWVAIVNFLFSAVFTDAPSWAFYMFMLAGIPAYFGFFFSLSMARAQQDSQ”, for which the protein production entry is “failed”.

With “MCSALVVAAPHSGSGKTTVTAAIARYHRVQGRKVTVFKVGPDFIDPMILRQASGELVYQLDLWLVGEQGCRALLHRAAMDSDLILIEGVMGLFDGTPSSADLAKYFNIPVLGVIDAKAMAQTFAAVTFGLAKFCEDLPFSGVIANRVNTERHAELLSVSLPKAFRFYGRIPKDDTITLPERHLGLVQAQELSDIDVQLDKAASHIANTGLTELPSQVEFFAQEDDNQENIIEGALAGTRIIIIRDSAFSFIYAANIAFLTQTGAELIYCSAMADVHLPDGDILYIPGGYPELYAEQLMNNVTFLSDIRAFSASNKPIVAECGGMLYLLEQLTDMEGQQFSMLGLMPGKATMQKKLAAIGSQWVPLPSFADAAEDSADNIMRGHSFHYSCAEIELEPSSQTTHHPSERAGEYVYQHNNILASYMHWYFPSNPSLTLRIFDKARYLLEHHHHHH”, the protein production result is recorded as “not failed”.

Turning to “MWPSCMARFPSDGQPGYRFVPSPGSGAGEEEMRPLVSVVCACFNISKYLDEAIASIYAQGYPNLELIVVDDGSTDDTYERLAMLRERHGFQLYRQANRGVSDALNHGLRHARGEFVMTPDLDDILLPGALDTRVDYLLAHPEVGCVGGFNICIDSAGNEVARDGFSEGCVERWGFDAALAETLVVMPLTALYRMEAMKRADFFDPSIRVQDFQITLRIAAQGYEIHRLPAYMGRYRRHGSGLSGRYKLNYEADMQAIEPYRAHPNYRRARQLILNKALKKAVVQDGRYAWQLFRSVPLRAWDRVTLKRFWRFLRYLPVLGLKGGTGVEGR”, the protein production result is “failed”.
